Test results as given in the supplement of paper PMC9732359.
± gives the uncertainty stated by the source.

Experiment: protein stability index of a GFP-peptide fusion (yeast GPS) (PSI 1-4); higher = more stable; sorted into four equal gates, so the index is relative within each strain
Summary of the method: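 Tiled 17-residue peptides from yeast proteins were fused downstream of GFP on a plasmid that also expresses Cherry, and the pooled library was carried in yeast. Mid-log cultures grown in leucine-free medium were sorted into four equal gates by GFP/Cherry fluorescence ratio. Plasmids from each gate were PCR-amplified and Illumina-sequenced, and reads were assigned to strains by barcodes. Each peptide's protein stability index is the sum, over gates, of the gate's read frequency multiplied by its gate number.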

Sequence	protein stability index (doa10∆)	protein stability index (pdr5∆)	protein stability index (san1∆)	protein stability index (ubr1∆)
DYLKNIIVENSGTSGDE [RPN2]	3.43 ± 0.21	3.48 ± 0.15	3.14 ± 0.057	3.29 ± 0.1
RQPVEGRSRDGGLRFGE [RPB2]	2.86 ± 0.29		2.81 ± 0.17	
TLAERQQLAYDLSISAL [RPN9]	2.39 ± 0.078	2.47 ± 0.13	2.77 ± 0.24	2.95 ± 0.093
IMDNFLERTAIELKTDW [RPN1]	3 ± 0.2	2.99 ± 0.18	3.07 ± 0.12	2.56 ± 0.15
IGIPVNKASLAQYEVLA [QCR2]	2.52 ± 0.06	2.42 ± 0.049	1.92 ± 0.088	2.81 ± 0.043
WRKSDRELTKNILWRIA [SIR4]	2.91 ± 0.12	1.82 ± 0.088	2.09 ± 0.25	2.54 ± 0.089
VSTEGNVPQTLAPVPYE [RPL21A]	3.19 ± 0.072	3.02 ± 0.085	3.11 ± 0.05	3.05 ± 0.068
ILRNGIDYLQRNDKTLE [POP1]	3.19 ± 0.058	3.01 ± 0.056	2.95 ± 0.054	2.88 ± 0.051
QTIMKMGPLSNIAQMIP [SRP54]	2.6 ± 0.081	2.67 ± 0.068	2.58 ± 0.08	2.99 ± 0.07
ADDAISMHLLKDWTDTF [SRB8]	3.12 ± 0.056	2.94 ± 0.058	2.94 ± 0.044	2.95 ± 0.065
IAPPVAPHDSEATLLTN [SNF5]	2.99 ± 0.066	2.82 ± 0.068	2.93 ± 0.043	2.83 ± 0.049
DEQQREDNNDAVNSIMA [ECM29]	3.16 ± 0.1	3.56 ± 0.11	3.07 ± 0.1	3.31 ± 0.074
NEKLADLGLEKEFQSVD [RPC53]			2 ± 0.17	
QLKDMQTIEMITQIVEK [SRB8]	2.87 ± 0.069	3.19 ± 0.075	2.94 ± 0.059	2.85 ± 0.056
EILTNQQRGITYLNEVL [YGR119C/NUP57]	2.7 ± 0.068	3.09 ± 0.079	3.12 ± 0.061	2.71 ± 0.066
DALLNSTTEHINIDDLL [YJL039C/NUP192]	2.47 ± 0.24	2.73 ± 0.12	2.59 ± 0.092	3.17 ± 0.059
PKYESLKLEYYNLLVKI [RPN5]	2.1 ± 0.084	1.48 ± 0.1	1.12 ± 0.3	1.24 ± 0.059
QQQQQQNGQQPPTTSNL [YML103C/NUP188]	2.502 ± 0.02	2.737 ± 0.022	2.617 ± 0.019	2.661 ± 0.02
NYSSESYRNAFTNVLTK [YJL039C/NUP192]	2.56 ± 0.047	2.38 ± 0.067	2.31 ± 0.067	2.48 ± 0.038
NWRRLSGRNIHLAVVCV [SSN2]	2.12 ± 0.085	1.58 ± 0.044	1.55 ± 0.078	2.86 ± 0.045
KIKQYERLRFYKDTFTL [RRI1]	2.78 ± 0.056	2.54 ± 0.055	2.4 ± 0.049	2.81 ± 0.039
SGNDSMAGKVLILTSHN [BRR2]	2.13 ± 0.058	2.28 ± 0.072	1.63 ± 0.091	2.36 ± 0.089
PSRTRETATSERNASEV [GRR1]	3.32 ± 0.15	3 ± 0.12	2.86 ± 0.091	2.84 ± 0.14
DQLDSEAASITRKSLNN [ECM29]	2.89 ± 0.1	2.91 ± 0.1	3.04 ± 0.064	2.95 ± 0.049
FIKLQKIDIIELQKSLS [FAS1]	2.15 ± 0.045	2 ± 0.044	2.04 ± 0.059	2.28 ± 0.047
DVNTNANANANATANAT [SNF11]	3.13 ± 0.088	3.27 ± 0.081	3.23 ± 0.045	3.32 ± 0.063
EKPQFKDGETTDANGKT [RPO26]	3.36 ± 0.076	3.3 ± 0.047	3.36 ± 0.059	3.28 ± 0.05
